From US20160052997A1 (CELLTRION, published 2016)

Target: HA of A/CA/04/09 (H1N1) virus (Influenza A virus A/CA/04/09 (H1N1))
Experiment: cell-based or functional assay

B1: CT120 (antibody, V domains shown)
VH: QVQLVQSGAEVKMPGSSVKVSCKTSGVFFSSHAISWVRQAPGQGLEWMGGISPMFGTTHYAQKFQGRVTITADQSTTTAYMELTSLTSEDTAVYYCARDGAGSYYPLNWFDPWGQGTLVTVSS
VL: EIVLTQSPATLSLSPGERATLSCRASENIWNNLAWYQQKPGQAPRLLISGASTGATGVPSRFRGSGSRTEFTLTISSLQSEDFAIYFCQQYNSWPRTFGPGTKVEIKR
  EC50, microneutralization test: 0.21 µg/mL
